In publication PMC6749138 one finds ratio of the GFP+ MHC-I- population of HEK293T cells transfected with Nef (flow cytometry; wild type 34.9%) data, which are given here for one substance.

Assay [1] has as its target HA-tagged HIV-1 Nef E63A (HIV-1 (NL4-3)) (UniProt P03406).
Assay [2] concerns the target HA-tagged HIV-1 Nef E63A/F68A double mutant (HIV-1 (NL4-3)) (UniProt P03406).
For assay [3], the target named is HA-tagged HIV-1 Nef F68A (HIV-1 (NL4-3)) (UniProt P03406).

With “adaptor protein 1 (AP-1) complex (from UniProt Q9BXS5 1-423)”, the ratio of the GFP+ MHC-I- population of HEK293T cells transfected with Nef (flow cytometry; wild type 34.9%) in assay [1] was determined as 25.7%; in assay [2], 19.2%; in assay [3] it was 23.2%.
